# In patent US10053696B2, “MiRNA-489 in treatment of breast cancer” (University of South Carolina, priority 2016, dated 2018):
# Key:
# [1] = tested on: miR-489, miR-125b and miR-99a expression in MCF7 HER2 cells; experiment: qRT-PCR of HER2-regulated miRNAs after lapatinib treatment; assay type: cell-based; settings: lapatinib treated MCF7 HER2 cells, qRT-PCR (FIG. 4)
# Experimental: All data are representative of three independent experiments.
# (§1) Quantitative real-time RT-PCR analysis, Immunohistochemistry staining (IHC), Western Blot analysis, Fluorescence-Activated Cell Sorting (FACS) assay, Luciferase assay and Xenograft experiments were performed using standard protocol.
# (§2) To identify specific miRNAs that may be involved in promotion of breast cancer progression, expression profiles of several (˜200) miRNA were screened and compared for HER2 over-expressing and control MCF7 cells using quantitative RT-PCR (qRT-PCR) analysis.
# [2] = tested on: HER2, AKT and MAPK phosphorylation in MCF7 vect and MCF7 HER2 cells; experiment: Western blot of HER2 signaling after lapatinib treatment; assay type: cell-based; settings: 2 μM lapatinib, 48 h, Western blot (FIG. 3)
# Experimental: as §1, §2
# 3′UTR of HER2 = experiment: Dual luciferase assay with HER2 3′UTR reporter constructs; assay type: cell-based, human; settings: MCF7 HER2 cells, co-transfected 48 h, normalized with renilla (FIG. 16)
# Experimental: FIG. 16 presents a schematic representation of the HER2 mRNA (wild type (wt) and mutant (mut)) with putative miR-489 binding site in the 3′ UTR, where the seed region is highlighted. MCF7 HER2 cells were co-transfected with either of miR-489 expressing vector or empty vector and renilla expressing vector for 48 h. Firefly luciferase was measured for each condition and normalized with renilla luciferase. Normalized luciferase activity was compared with WT-3′UTR and Mutant 3′ UTR of HER2 (graph).
# A 650 bp long 3′ UTR of human HER2 was amplified from genomic DNA and cloned into the pGL3-promoter vector at the same Xba I and BamH I sites. For the mutation analysis putative miR-489 target site within 3′UTR of HER2 was mutated by Phusion site directed mutagenesis kit (Thermofisher Cat# F-541). All sequences were verified by direct sequencing of the plasmids.
# as §1
# To examine the similar effect of mimic-489 treatment on the expression of HER2, other breast cancer cell lines, AU-565, BT-474, HCC-1954 and ZR-75-1 cells were treated with mimic-489 for 72 hours to isolate total protein and RNA. […]
# SHP2 = SHP2 expression in breast cancer cell lines after miR-489 overexpression; assay type: cell-based; settings: mRNA and protein levels
Molecule,"expression of miR-489, miR-125b and miR-99a after inhibition of HER2 phosphorylation [1]","HER2, AKT and MAPK phosphorylation [2]",luciferase activity of mutant HER2 3′UTR (3′UTR of HER2),luciferase activity of wt HER2 3′UTR (3′UTR of HER2),SHP2 expression (SHP2)
CS(=O)(=O)CCNCc1ccc(-c2ccc3ncnc(Nc4ccc(OCc5cccc(F)c5)c(Cl)c4)c3c2)o1 [lapatinib],at least partially restored the expression profile,almost complete blockade,,,
"miR-489: microRNA-489 (SEQ ID NO: 2); overexpressed in cells, e.g. from miR-489 expressing vector in the luciferase assay (nucleic acid, listed as Homo sapiens) GUGGCAGCUUGGUGGUCGUAUGUGUGACGCCAUUUACUUGAACCUUUAGGAGUGACAUCACAUAUACGGCAGCUAAACUGCUAC",,,not the mutant HER2 3′UTR is significantly reduced,significantly reduced,reduced SHP2 expression
